Source: US20140302075A1

Biological target: human TLR4 receptor (expressed on HEK-Blue TLR4 reporter cells) (human) (UniProt O00206)
Assay: cell-based or functional assay

Chain of UniProt O00206 (O00206 24-839): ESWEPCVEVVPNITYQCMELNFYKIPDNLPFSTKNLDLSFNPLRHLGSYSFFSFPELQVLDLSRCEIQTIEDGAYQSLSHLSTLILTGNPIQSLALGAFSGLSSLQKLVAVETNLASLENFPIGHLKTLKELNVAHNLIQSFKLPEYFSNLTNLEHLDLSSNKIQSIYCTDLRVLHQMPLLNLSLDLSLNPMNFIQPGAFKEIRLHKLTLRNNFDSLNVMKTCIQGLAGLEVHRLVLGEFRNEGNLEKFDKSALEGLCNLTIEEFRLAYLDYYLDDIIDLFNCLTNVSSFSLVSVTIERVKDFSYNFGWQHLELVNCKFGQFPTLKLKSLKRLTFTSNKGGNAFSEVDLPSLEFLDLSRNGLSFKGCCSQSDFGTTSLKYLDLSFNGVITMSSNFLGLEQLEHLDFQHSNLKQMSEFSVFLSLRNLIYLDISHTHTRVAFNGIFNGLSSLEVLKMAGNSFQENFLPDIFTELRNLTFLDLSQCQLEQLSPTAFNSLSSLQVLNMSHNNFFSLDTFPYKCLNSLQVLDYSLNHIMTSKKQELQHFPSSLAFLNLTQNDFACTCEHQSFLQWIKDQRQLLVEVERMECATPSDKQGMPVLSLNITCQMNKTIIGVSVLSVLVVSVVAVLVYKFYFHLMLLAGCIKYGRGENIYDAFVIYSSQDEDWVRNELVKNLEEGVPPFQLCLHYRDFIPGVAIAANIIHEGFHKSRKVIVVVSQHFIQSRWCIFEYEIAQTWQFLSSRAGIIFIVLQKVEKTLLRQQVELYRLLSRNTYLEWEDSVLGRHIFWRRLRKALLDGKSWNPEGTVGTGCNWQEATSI

Fold increase in activity over AspRS1^N1 (TLR4 Activity; SEAP reporter, HEK-Blue TLR4 cells): 3.6 fold
Substance: AspRS1^N1 (C76S) (amino acids 1-154 of human aspartyl-tRNA synthetase with Cys76 to Ser, C-terminal V5His tag) (ligand)
